PMC9482650, “Quantitative fragmentomics allow affinity mapping of interactomes” (Nature Communications, 2022)

T1: APBA1_2, Q02410
T1 sequence (Q02410 742-832, limits assumed, looked up): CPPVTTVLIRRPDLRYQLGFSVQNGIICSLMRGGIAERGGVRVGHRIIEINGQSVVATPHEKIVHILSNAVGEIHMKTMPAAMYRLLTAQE

T2: APBA2_2, Q99767
T2 sequence (Q99767 654-744, limits assumed, looked up): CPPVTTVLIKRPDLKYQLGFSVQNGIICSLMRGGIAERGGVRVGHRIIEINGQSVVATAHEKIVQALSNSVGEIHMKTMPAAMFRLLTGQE

T3: ARHGAP21, Q5T5U3
T3 sequence (Q5T5U3 45-169, limits assumed, looked up): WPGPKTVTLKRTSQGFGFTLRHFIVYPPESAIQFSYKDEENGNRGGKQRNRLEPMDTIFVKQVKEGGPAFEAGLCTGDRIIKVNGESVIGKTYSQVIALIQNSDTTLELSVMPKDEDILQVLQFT

T4: LNX2_3, Q8N448
T4 sequence (Q8N448 463-564, limits assumed, looked up): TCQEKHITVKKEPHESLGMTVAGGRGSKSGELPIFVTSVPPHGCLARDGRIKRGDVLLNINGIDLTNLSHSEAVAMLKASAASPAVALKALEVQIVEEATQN

T5: MPP2, Q14168
T5 sequence (Q14168 180-250, limits assumed, looked up): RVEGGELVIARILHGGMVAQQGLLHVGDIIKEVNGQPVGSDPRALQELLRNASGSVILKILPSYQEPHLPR

T6: MPP7, Q5T2T1
T6 sequence (Q5T2T1 134-230, limits assumed, looked up): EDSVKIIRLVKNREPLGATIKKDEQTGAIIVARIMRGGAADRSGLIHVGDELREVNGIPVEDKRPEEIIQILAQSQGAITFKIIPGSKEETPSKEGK

T7: NHERF3_1, Q5T2W1
T7 sequence (Q5T2W1 4-100, limits assumed, looked up): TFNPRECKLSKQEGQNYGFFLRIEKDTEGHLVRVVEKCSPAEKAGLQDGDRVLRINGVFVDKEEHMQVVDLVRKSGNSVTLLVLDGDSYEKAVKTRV

T8: PCLO, Q9Y6V0
T8 sequence (Q9Y6V0 4491-4600, limits assumed, looked up): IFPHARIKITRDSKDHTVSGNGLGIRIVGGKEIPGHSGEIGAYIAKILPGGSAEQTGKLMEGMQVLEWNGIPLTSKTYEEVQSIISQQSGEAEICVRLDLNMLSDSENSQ

T9: PDZRN3_1, Q9UPQ7
T9 sequence (Q9UPQ7 244-349, limits assumed, looked up): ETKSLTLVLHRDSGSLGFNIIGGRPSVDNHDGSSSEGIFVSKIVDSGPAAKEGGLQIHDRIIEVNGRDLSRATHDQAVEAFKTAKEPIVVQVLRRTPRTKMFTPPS

T10: SNTG1, Q9NSN8
T10 sequence (Q9NSN8 52-150, limits assumed, looked up): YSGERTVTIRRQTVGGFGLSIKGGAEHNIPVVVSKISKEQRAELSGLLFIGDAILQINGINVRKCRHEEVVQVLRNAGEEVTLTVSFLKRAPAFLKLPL


Legend:
Assay in all cases: holdup assay
Design in all cases: key: below the threshold = too weak to quantify, mostly under pKd 3.1 to 4
Conditions in all cases: plain residues with an end cap or a label only (N-terminal biotin on a linker: ado-ado)
APBA1_2, Q02410 = biological target: T1, APBA1_2, Q02410
APBA2_2, Q99767 = biological target: T2, APBA2_2, Q99767
ARHGAP21, Q5T5U3 = biological target: T3, ARHGAP21, Q5T5U3
DLG1_1, Q12959 = biological target: DLG1_1, Q12959
DLG4_2, P78352 = biological target: DLG4_2, P78352
Sequence of DLG4_2, P78352 (P78352 155-259): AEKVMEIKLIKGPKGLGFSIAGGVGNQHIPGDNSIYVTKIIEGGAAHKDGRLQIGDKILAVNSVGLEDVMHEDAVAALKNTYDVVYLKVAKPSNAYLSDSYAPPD

FRMPD4, Q14CM0 = biological target: FRMPD4, Q14CM0
Sequence of FRMPD4, Q14CM0 (Q14CM0 67-160): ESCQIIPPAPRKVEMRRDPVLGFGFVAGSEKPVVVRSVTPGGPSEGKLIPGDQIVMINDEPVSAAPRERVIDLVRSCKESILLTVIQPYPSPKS

GRID2IP_2, A4D2P6 = biological target: GRID2IP_2, A4D2P6
Sequence of GRID2IP_2, A4D2P6 (A4D2P6 272-370): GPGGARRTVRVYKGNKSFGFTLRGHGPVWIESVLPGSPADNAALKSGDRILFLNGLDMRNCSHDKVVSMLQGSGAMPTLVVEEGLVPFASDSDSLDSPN

GRIP2_3, Q9C0E4 = biological target: GRIP2_3, Q9C0E4
Sequence of GRIP2_3, Q9C0E4 (Q9C0E4 238-339): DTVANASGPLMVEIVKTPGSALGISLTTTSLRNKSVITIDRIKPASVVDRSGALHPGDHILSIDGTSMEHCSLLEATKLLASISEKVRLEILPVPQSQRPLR

GRIP2_4, Q9C0E4 = biological target: GRIP2_4, Q9C0E4
Sequence of GRIP2_4, Q9C0E4 (Q9C0E4 446-548): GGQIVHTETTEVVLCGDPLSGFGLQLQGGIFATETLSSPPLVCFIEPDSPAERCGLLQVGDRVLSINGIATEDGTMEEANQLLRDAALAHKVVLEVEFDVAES

GRIP2_5, Q9C0E4 = biological target: GRIP2_5, Q9C0E4
Sequence of GRIP2_5, Q9C0E4 (Q9C0E4 544-642): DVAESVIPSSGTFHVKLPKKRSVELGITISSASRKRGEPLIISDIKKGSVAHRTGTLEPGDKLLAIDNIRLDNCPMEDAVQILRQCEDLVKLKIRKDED

GRIP2_6, Q9C0E4 = biological target: GRIP2_6, Q9C0E4
Sequence of GRIP2_6, Q9C0E4 (Q9C0E4 648-740): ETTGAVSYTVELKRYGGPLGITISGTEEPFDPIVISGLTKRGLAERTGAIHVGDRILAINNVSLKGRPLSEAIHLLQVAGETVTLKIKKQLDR

IL16_1, Q14005 = biological target: IL16_1, Q14005
Sequence of IL16_1, Q14005 (Q14005 210-306): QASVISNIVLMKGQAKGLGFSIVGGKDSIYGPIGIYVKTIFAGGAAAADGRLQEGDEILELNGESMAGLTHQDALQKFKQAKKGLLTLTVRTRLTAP

IL16_3, Q14005 = biological target: IL16_3, Q14005
Sequence of IL16_3, Q14005 (Q14005 1107-1207): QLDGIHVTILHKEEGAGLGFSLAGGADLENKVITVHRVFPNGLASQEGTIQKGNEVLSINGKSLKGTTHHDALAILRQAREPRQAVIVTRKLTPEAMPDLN

Inadl_10, Q8NI35 = biological target: Inadl_10, Q8NI35
Sequence of Inadl_10, Q8NI35 (Q8NI35 1673-1763): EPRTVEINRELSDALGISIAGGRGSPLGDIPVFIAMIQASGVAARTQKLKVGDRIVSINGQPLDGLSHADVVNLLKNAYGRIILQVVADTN

LNX1_1, Q8TBB1 = biological target: LNX1_1, Q8TBB1
Sequence of LNX1_1, Q8TBB1 (Q8TBB1 261-371): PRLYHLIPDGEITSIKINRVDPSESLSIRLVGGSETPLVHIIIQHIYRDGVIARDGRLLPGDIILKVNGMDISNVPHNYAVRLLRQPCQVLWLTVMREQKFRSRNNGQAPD

LNX1_3, Q8TBB1 = biological target: LNX1_3, Q8TBB1
Sequence of LNX1_3, Q8TBB1 (Q8TBB1 500-596): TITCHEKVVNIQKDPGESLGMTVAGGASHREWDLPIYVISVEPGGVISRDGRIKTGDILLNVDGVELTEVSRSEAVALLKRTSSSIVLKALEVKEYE

LNX2_3, Q8N448 = biological target: T4, LNX2_3, Q8N448
MAGI2_4, Q86UL8 = biological target: MAGI2_4, Q86UL8
Sequence of MAGI2_4, Q86UL8 (Q86UL8 772-865): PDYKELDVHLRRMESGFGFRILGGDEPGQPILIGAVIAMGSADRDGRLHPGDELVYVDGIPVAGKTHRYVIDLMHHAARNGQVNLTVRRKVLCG

MAGI2_5, Q86UL8 = biological target: MAGI2_5, Q86UL8
Sequence of MAGI2_5, Q86UL8 (Q86UL8 915-1017): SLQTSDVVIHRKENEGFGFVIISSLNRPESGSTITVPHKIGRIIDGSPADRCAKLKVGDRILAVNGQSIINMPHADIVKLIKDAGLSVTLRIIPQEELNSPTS

MPP2, Q14168 = biological target: T5, MPP2, Q14168
MPP7, Q5T2T1 = biological target: T6, MPP7, Q5T2T1
NHERF3_1, Q5T2W1 = biological target: T7, NHERF3_1, Q5T2W1
PCLO, Q9Y6V0 = biological target: T8, PCLO, Q9Y6V0
PDZRN3_1, Q9UPQ7 = biological target: T9, PDZRN3_1, Q9UPQ7
PTPN3, P26045 = biological target: PTPN3, P26045
Sequence of PTPN3, P26045 (P26045 505-587): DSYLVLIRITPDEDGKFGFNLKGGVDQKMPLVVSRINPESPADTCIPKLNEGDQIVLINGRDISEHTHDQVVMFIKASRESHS

SCRIB_3, Q14160 = biological target: SCRIB_3, Q14160
Sequence of SCRIB_3, Q14160 (Q14160 999-1103): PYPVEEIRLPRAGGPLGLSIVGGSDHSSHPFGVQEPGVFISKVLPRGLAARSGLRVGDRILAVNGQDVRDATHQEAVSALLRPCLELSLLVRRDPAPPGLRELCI

SNTG1, Q9NSN8 = biological target: T10, SNTG1, Q9NSN8
TJP1_3, Q07157 = biological target: TJP1_3, Q07157
Sequence of TJP1_3, Q07157 (Q07157 416-512): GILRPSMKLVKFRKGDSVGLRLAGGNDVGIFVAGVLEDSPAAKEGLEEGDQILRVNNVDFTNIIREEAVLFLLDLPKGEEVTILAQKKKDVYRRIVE

| Binder | pKd (APBA1_2, Q02410) | pKd (APBA2_2, Q99767) | pKd (ARHGAP21, Q5T5U3) | pKd (DLG1_1, Q12959) | pKd (DLG4_2, P78352) | pKd (FRMPD4, Q14CM0) | pKd (GRID2IP_2, A4D2P6) | pKd (GRIP2_3, Q9C0E4) | pKd (GRIP2_4, Q9C0E4) | pKd (GRIP2_5, Q9C0E4) | pKd (GRIP2_6, Q9C0E4) | pKd (IL16_1, Q14005) | pKd (IL16_3, Q14005) | pKd (Inadl_10, Q8NI35) | pKd (LNX1_1, Q8TBB1) | pKd (LNX1_3, Q8TBB1) | pKd (LNX2_3, Q8N448) | pKd (MAGI2_4, Q86UL8) | pKd (MAGI2_5, Q86UL8) | pKd (MPP2, Q14168) | also measured |
| --- | --- | --- | --- | --- | --- | --- | --- | --- | --- | --- | --- | --- | --- | --- | --- | --- | --- | --- | --- | --- | --- |
| DTKNYKQTSV [CRIPT, Q9P021] | 3.73 | below the threshold | 3.75 | 4.35 | 4.9 | below the threshold | 4.39 | below the threshold | below the threshold | below the threshold | 3.52 | below the threshold | below the threshold | below the threshold | 3.78 | below the threshold | below the threshold | 3.87 | 4.26 | below the threshold | pKd (MPP7, Q5T2T1): below the threshold; pKd (NHERF3_1, Q5T2W1): 4.59; pKd (PCLO, Q9Y6V0): below the threshold; pKd (PDZRN3_1, Q9UPQ7): 4.12; pKd (PTPN3, P26045): 5.07; pKd (SCRIB_3, Q14160): 4.98; pKd (SNTG1, Q9NSN8): 4.12; pKd (TJP1_3, Q07157): below the threshold |
| DRIQSCLSDA [SBF1, O95248] | below the threshold | 3.48 | below the threshold | below the threshold | below the threshold | below the threshold | below the threshold | below the threshold | below the threshold | below the threshold | below the threshold | below the threshold | below the threshold | below the threshold | 3.62 | below the threshold | below the threshold | 3.7 | 3.6 | below the threshold | pKd (MPP7, Q5T2T1): below the threshold; pKd (NHERF3_1, Q5T2W1): below the threshold; pKd (PCLO, Q9Y6V0): below the threshold; pKd (PDZRN3_1, Q9UPQ7): below the threshold; pKd (PTPN3, P26045): 4.23; pKd (SCRIB_3, Q14160): below the threshold; pKd (SNTG1, Q9NSN8): below the threshold; pKd (TJP1_3, Q07157): below the threshold |
| PSVGSKKTVL [REELD1, A0A1B0GV85] | 3.56 | below the threshold | 3.93 | below the threshold | below the threshold | 3.53 | 4.75 | below the threshold | below the threshold | below the threshold | below the threshold | below the threshold | below the threshold | below the threshold | below the threshold | below the threshold | below the threshold | below the threshold | below the threshold | below the threshold | pKd (MPP7, Q5T2T1): below the threshold; pKd (NHERF3_1, Q5T2W1): 3.72; pKd (PCLO, Q9Y6V0): below the threshold; pKd (PDZRN3_1, Q9UPQ7): 3.48; pKd (PTPN3, P26045): 3.64; pKd (SCRIB_3, Q14160): 3.6; pKd (SNTG1, Q9NSN8): below the threshold; pKd (TJP1_3, Q07157): below the threshold |
| SFISKKEWYV [NECTIN1, Q15223] | 3.82 | below the threshold | 4.04 | 3.6 | 3.73 | 3.87 | below the threshold | below the threshold | below the threshold | below the threshold | 4.3 | below the threshold | below the threshold | below the threshold | below the threshold | 4.49 | below the threshold | 3.8 | below the threshold | 4.46 | pKd (MPP7, Q5T2T1): 5.11; pKd (NHERF3_1, Q5T2W1): 4.28; pKd (PCLO, Q9Y6V0): below the threshold; pKd (PDZRN3_1, Q9UPQ7): below the threshold; pKd (PTPN3, P26045): 3.96; pKd (SCRIB_3, Q14160): below the threshold; pKd (SNTG1, Q9NSN8): 3.51; pKd (TJP1_3, Q07157): below the threshold |
